Read-outs that look alike come from different tables or passages of the source.
Experiments:
Assay in all cases: cell-based or functional assay
[1] = target: human voltage-gated sodium channel Nav1.3 (human) (UniProt Q9NY46)
[2] = target: human voltage-gated sodium channel Nav1.4 (human) (UniProt P35499)
[3] = target: human voltage-gated sodium channel Nav1.5 (human) (UniProt Q14524)
[4] = target: human voltage-gated sodium channel Nav1.7 (human) (UniProt Q15858)
[5] = target: human voltage-gated sodium channel Nav1.7 (human) (UniProt Q15858); remark: listed apart in the source
[6] = target: human voltage-gated sodium channel Nav1.4 (human) (UniProt P35499); remark: listed apart in the source
[7] = target: human voltage-gated sodium channel Nav1.5 (human) (UniProt Q14524); remark: listed apart in the source

human voltage-gated sodium channel Nav1.4 (human), sequence (P35499 whole entry): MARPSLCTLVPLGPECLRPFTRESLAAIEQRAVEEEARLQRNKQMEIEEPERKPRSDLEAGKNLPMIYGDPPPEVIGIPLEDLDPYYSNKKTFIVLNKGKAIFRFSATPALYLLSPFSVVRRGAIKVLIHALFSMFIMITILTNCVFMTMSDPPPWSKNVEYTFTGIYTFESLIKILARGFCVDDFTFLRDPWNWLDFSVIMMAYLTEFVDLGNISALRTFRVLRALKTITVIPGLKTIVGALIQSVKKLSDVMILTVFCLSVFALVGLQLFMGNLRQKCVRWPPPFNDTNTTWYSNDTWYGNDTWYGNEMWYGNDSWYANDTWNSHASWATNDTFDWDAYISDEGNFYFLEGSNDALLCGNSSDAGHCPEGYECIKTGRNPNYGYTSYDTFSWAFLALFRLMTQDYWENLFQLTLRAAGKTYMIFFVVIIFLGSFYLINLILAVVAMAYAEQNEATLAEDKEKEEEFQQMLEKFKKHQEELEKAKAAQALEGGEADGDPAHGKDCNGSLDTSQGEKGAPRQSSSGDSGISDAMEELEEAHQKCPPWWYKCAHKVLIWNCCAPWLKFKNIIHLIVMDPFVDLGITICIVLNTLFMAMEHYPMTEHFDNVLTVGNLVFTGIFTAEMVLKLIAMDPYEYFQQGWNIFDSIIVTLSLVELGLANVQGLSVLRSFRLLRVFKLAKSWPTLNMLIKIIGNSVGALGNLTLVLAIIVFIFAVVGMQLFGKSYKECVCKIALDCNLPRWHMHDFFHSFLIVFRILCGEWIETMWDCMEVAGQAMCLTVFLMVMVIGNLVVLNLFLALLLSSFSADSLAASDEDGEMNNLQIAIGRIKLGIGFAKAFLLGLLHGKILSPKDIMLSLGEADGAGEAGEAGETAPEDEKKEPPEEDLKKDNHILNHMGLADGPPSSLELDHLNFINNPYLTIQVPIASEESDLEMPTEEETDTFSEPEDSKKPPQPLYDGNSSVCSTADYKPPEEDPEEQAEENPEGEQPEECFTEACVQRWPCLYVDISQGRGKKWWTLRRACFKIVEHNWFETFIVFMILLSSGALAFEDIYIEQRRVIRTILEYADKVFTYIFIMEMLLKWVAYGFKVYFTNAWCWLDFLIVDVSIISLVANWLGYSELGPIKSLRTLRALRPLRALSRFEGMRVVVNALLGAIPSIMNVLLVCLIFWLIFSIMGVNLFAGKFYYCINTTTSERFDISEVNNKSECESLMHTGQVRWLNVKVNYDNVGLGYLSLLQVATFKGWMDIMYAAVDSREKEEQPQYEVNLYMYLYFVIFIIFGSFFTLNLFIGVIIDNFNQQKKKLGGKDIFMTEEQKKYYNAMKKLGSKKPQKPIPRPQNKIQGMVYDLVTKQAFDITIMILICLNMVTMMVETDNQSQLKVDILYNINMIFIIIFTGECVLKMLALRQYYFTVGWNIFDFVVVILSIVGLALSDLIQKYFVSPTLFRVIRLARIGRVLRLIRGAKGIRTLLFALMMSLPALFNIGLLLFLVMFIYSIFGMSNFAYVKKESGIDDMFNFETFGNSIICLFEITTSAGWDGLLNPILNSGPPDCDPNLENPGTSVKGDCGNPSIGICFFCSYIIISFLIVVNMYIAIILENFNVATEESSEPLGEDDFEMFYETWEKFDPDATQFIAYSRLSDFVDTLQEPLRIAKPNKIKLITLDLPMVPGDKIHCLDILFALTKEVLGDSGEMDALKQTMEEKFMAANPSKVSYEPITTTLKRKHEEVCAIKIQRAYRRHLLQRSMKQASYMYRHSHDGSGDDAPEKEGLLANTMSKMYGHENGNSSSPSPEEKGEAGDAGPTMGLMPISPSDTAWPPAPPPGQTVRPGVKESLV
human voltage-gated sodium channel Nav1.7 (human), sequence (Q15858 whole entry): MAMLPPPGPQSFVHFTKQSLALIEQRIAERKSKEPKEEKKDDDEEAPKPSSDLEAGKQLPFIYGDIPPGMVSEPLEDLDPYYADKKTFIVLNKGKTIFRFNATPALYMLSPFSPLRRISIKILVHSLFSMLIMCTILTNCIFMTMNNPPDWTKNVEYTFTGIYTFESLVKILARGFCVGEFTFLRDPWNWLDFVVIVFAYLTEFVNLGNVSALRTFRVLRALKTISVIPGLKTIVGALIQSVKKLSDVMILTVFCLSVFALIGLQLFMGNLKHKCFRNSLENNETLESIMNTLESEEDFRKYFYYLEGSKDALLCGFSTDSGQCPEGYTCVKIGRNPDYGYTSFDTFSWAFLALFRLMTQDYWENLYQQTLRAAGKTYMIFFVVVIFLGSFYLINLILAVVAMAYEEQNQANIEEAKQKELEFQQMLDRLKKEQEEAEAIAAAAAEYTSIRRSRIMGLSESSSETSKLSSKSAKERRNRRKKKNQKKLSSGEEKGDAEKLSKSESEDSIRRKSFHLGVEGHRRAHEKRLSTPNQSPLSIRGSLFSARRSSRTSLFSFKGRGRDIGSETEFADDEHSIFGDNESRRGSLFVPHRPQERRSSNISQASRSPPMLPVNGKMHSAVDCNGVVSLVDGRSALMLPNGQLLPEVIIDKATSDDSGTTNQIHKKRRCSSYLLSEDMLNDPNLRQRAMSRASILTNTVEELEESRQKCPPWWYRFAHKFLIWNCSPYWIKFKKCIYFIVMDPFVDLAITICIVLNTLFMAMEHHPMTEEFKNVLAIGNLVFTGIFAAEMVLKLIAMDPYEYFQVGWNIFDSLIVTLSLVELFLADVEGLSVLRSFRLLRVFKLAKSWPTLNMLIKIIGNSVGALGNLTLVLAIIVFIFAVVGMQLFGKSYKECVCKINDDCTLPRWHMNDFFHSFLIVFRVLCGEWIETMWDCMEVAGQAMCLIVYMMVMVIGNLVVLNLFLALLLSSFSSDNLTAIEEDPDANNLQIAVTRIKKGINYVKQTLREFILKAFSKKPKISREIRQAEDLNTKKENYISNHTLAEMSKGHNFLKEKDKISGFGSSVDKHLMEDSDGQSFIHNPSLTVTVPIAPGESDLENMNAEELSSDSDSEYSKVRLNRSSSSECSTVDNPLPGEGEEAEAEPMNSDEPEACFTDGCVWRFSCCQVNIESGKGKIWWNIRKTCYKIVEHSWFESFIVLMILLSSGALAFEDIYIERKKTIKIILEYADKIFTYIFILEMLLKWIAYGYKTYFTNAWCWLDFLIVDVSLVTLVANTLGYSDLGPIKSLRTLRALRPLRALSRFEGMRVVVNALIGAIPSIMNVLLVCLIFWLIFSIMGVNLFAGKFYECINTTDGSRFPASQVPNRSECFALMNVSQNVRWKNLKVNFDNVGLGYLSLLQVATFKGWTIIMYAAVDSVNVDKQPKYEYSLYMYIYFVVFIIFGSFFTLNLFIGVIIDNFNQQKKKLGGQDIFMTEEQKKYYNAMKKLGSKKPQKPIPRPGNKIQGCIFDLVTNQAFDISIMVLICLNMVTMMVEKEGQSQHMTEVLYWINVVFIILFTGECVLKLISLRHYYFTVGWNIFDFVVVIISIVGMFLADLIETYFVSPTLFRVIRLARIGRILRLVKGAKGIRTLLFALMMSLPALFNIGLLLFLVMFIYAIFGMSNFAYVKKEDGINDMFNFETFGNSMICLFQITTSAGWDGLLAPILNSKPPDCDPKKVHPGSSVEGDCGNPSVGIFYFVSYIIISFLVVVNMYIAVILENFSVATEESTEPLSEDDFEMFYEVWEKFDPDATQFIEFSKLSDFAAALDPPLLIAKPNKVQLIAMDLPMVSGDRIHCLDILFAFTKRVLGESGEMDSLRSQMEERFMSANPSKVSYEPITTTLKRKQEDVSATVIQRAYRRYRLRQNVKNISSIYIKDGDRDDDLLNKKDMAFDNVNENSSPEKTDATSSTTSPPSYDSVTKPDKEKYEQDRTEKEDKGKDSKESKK

Substance | PX hNav1.7 Tonic IC50 [5] [µM] | PX hNav1.4 Tonic IC50 [6] [µM] | PX hNav1.5 Tonic IC50 [7] [µM] | other results
[Cit7;Glu20;Tyr28]JzTx-V(1-29) (peptide) | – | – | – | IC50 (IonWorks Quattro) [1]: > 7 µM; IC50 (IonWorks Quattro) [2]: > 7 µM; IC50 (IonWorks Quattro) [3]: > 7 µM; IC50 (IonWorks Quattro) [4]: 5.8 µM
[Nle6; AzK11; Glu20; Trp29]JzTx-V(1-29) (peptide) | 0.435 | – | – | –
[Nle6; Pra11; Glu20; Tyr28]JzTx-V(1-29) (peptide) | 0.00128 | 0.825 | 2.46 | –
[Nle6;Pra11;Glu20;Trp29]JzTx-V(1-29) (peptide) | – | – | – | IC50 (IonWorks Quattro) [5]: 0.026 µM
[Nle6; Pra14; Glu20]JzTx-V(1-29) (peptide) | 0.00716 | 1.66 | 4.57 | –
[Nva7;Glu20;Tyr28]JzTx-V(1-29) (peptide) | – | – | – | IC50 (IonWorks Quattro) [1]: > 7 µM; IC50 (IonWorks Quattro) [2]: > 7 µM; IC50 (IonWorks Quattro) [3]: > 7 µM; IC50 (IonWorks Quattro) [4]: 4.5 µM
[Nle6; Pra14; Glu20; Tyr28]JzTx-V(1-29) (peptide) | 0.00176 | 0.707 | 3.69 | –
[Nle6; Pra11; Glu20]JzTx-V(1-29) (peptide) | 0.0184 | 4.22 | 3.55 | –

Reference: patent publication US20150023988A1
